Publication PMC13418256

Molecular target: human TLR5 (human) (UniProt O60602)
UniProt O60602, sequence (O60602 21-858): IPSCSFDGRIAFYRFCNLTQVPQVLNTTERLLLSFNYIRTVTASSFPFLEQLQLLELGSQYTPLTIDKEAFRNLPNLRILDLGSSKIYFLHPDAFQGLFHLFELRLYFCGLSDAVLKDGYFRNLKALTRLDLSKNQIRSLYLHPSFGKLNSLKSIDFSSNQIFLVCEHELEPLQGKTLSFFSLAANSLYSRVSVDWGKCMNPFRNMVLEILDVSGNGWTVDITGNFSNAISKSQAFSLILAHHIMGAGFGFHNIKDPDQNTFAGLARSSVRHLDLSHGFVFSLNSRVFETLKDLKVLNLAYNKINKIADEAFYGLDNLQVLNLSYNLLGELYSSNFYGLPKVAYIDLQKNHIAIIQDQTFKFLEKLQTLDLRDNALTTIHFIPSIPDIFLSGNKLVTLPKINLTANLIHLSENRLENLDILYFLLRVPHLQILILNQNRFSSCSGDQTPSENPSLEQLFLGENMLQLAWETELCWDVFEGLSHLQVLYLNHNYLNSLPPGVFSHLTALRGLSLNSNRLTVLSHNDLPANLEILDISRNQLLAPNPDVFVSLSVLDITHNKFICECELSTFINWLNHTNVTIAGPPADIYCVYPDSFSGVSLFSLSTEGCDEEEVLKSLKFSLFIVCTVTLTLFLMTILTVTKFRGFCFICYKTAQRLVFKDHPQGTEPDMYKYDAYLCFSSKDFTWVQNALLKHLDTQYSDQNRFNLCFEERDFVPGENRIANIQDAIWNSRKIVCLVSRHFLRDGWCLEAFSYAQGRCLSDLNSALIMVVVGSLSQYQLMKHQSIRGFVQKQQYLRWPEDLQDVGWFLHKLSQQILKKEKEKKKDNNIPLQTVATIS

Enterobacter sp. BIDMC93 host-encoded flagellin FliCH (natural protein)
TLR5-driven NF-κB activation (SEAP colorimetric reporter) in HEK293T-Blue-hTLR5 cells stimulated with an Ent strain expressing only FliCH (ΔfliCP-tldR-gRNA), against the WT lysogenic strain (fold of the WT lysogenic strain): 2
